# Experiments:
# [1] = system: rodent animals; experiment: acetic acid rising test; assay type: in vivo; conditions: administration before test
# Text: (§1) The inventors carried out, using rodent animals, animal tests related to pain: (1) hot plate test, (2) formalin test and (3) acetic acid rising test to examine the influences of lactoferrin administration on the animals' sensation of pain.
# [2] = system: TNF-α production; experiment: LPS-stimulated cytokine production in rats with adjuvant arthritis, ELISA (Example 8); assay type: in vivo, rat; conditions: LPS 1 mg/kg i.p., blood 3 hours later
# Description: (§2) It is known that in adjuvant arthritis models, the production of cytokines due to the LPS stimulation increases considerably, compared with normal animals, because the reactivity of their immune system increases due to chronic inflammation.
# (§3) One mg/kg of LPS was administered intraperitoneally to rats with adjuvant arthritis to stimulate the production of cytokines. Three hours after the LPS administration, the blood was collected from each rat and the quantities of cytokines were measure by ELISA. The groups to be administered a single dose of lactoferrin (groups B and C) were given orally 0.5% CMC once daily until the experiment day to allow the experiment conditions to match those of the group to be administered lactoferrin for 19 consecutive days. The group to be administered lactoferrin for 19 consecutive days (group E) was administered orally lactoferrin once daily from the very day when treated with adjuvant. The design of the experiment is shown in Table 2 and the results in FIG. 14.
# [3] = system: IL-10 production; experiment: as above; assay type: in vivo, rat; conditions: LPS 1 mg/kg i.p., blood 3 hours later
# Description: as §2, §3
# [4] = system: male Wistar rats; experiment: formalin test, intraperitoneal administration (Example 1); assay type: in vivo, rat
# Description: (§4) Formalin test is a typical pain sensation stimulating test. It is a method for determining an analgesic effect of drugs in which 50 μl of 2% formalin is injected into a foot pad of each experimental rat and the foot-lifting and foot-licking behavior of the rats is observed.
# Ten male Wistar rats (6 weeks of age) were randomly divided into two groups, and one hour before injecting formalin, the rats in the control group were given saline solution (1 ml/kg) and those in the lactoferrin group were given bovine lactoferrin dissolved in saline solution (100 ml/kg, Tatua Milk Industry Co., Ltd., purity: 87%) by intraperitoneal injection. After one hour, formalin solution was injected into the foot pad of each rat, and the foot-lifting and foot-licking behavior of each rat due to the stimulation of the pain sensation was measured for one hour (FIGS. 1 and 2).
# [5] = system: rodent animals; experiment: hot plate test; assay type: in vivo; conditions: administration before test
# Text: as §1
# [6] = system: male Wistar rats; experiment: formalin test, comparison with diclofenac (Example 3); assay type: in vivo, rat; conditions: i.p. 30 minutes before formalin
# Description: Male Wistar rats 6 weeks of age were used. The rats in one group were given bovine lactoferrin and those in another group were given a control drug, diclofenac, by intraperitoneal administration 30 minutes before injecting formalin into their foot pads. Their responses to pain are shown in FIG. 5: the phase 1 pain (left) and the phase 2 pain (right).
# Lactoferrin and diclofenac were administered intraperitoneally 30 minutes before formalin injection both in the control group (n=4) and the diclofenac group (n=5). The pain inhibiting effect of diclofenac disappeared about 50 minutes after formalin injection, whereas the pain inhibiting effect of lactoferrin lasted long and even 60 minutes after formalin injection.
# [7] = system: beagles; experiment: single dose acute toxicity study (GLP), oral; assay type: in vivo; conditions: maximum dose of 5 g/kg
# Text: (§5) In toxicity studies in beagles and rats carried out by the inventors in accordance with GLP, lactofferin extracted from milk (manufactured by Tatua Milk Industry Co., Ltd., New Zealand, purity: 87%) was non-toxic after oral administration at physical limit doses. […] Accordingly, lactoferrin is probably non-toxic after oral administration and has almost ideal characteristics as a therapy for cancer. It is likely that lactoferrin defends opportunistic infections frequently occurring in immunocompromised hosts such as patients with cancer, prevents carcinogenesis, inhibits the growth of cancer, prevents metastasis, and destructs a metastatic lesion. Further, it is probably highly safe when administered to patients declining in immunopotency, such as aged patients.
# [8] = system: rats; experiment: single dose acute toxicity study (GLP), oral; assay type: in vivo; conditions: maximum dose of 5 g/kg
# Text: as §5
# [9] = system: adjuvant arthritis rat model; assay type: in vivo; conditions: LF 100 mg/kg oral sid or bid, Dex 1 mg/kg i.p. sid
# Description: The preventive/therapeutic effects against arthritis of orally administered lactoferrin (LF) and the mechanism of the action were examined using an adjuvant arthritis rat model as an animal model with rheumatoid arthritis.
# Evaluation of the above described effects was performed by measuring the change in volume of foot due to swelling, Flexion test (pain in joints caused in flexion and extension test), and the production of cytokine by the stimulation of lipopolysaccharide.
# Adjuvant was injected subcutaneously into the sole of the right hind leg of each rat, and the volume of the feet was measured once a day to obtain the swelling rate of the feet of both hind legs. The test substance was suspended in 0.5% CMC and administered once or twice a day for 18 consecutive days starting from the first dose 3 hours before adjuvant treatment (day 0). On 4th and 10th days after treating with adjuvant, the swollen tarsal joint of each rat was extended 10 times and the number of times each rat screamed due to the stimulation of pain sensation caused by flexing and extending its tarsal joint was measured.
# [10] = system: protease; experiment: resistance of lactoferrin to protease; assay type: in vitro ADME
# Text: (§6) Preferably the composition of this invention, as a composition for an oral formulation, is made into an enteric-coated dosage form. The inventors of this invention hypothesize that there exists a structure, which can be referred to as a lactoferrin sensor, on the mucosa of the intestinal tract, as described in detail in International Patent Application, PCT/JP01/10212 (WO02/41912).
# [11] = system: adjuvant arthritis models; experiment: adjuvant arthritis, Flexion test after a single oral dose (Example 7); assay type: in vivo, rat
# Description: On day 25 after the adjuvant treatment, the rats were divided into 6 groups and administered once BSA (bovine serum albumin) or LF (lactoferrin), and after 3 hours, the pain index was measured for each group by Flexion test in the manner as in Example 5. Thirty minutes before Flexion test, saline solution, morphine or naloxone was administered subcutaneously.
# [12] = system: adjuvant arthritis rat model; experiment: adjuvant arthritis rat model, treatment in chronic phase (Example 6); assay type: in vivo
# Description: Subsequently after Example 5, lactoferrin (100 mg/kg) was orally administered for 7 consecutive days starting from day 19 after the adjuvant treatment, when the adjuvant treated rats were in the chronic phase of inflammation.
# [13] = system: male Wistar rats; experiment: formalin test, enhancement of analgesic effect of morphine (Example 13); assay type: in vivo; conditions: 10 ng/rat bovine lactoferrin with 1 to 10,000 ng/rat morphine; several 10- to 100-fold or more; FIG. 16
# Description: The lactoferrin's effect of enhancing the analgesic effect of morphine was examined by administering 1 to 10,000 ng/rat of morphine concurrently with 10 ng/rat of bovine lactoferrin (▪) or alone (●) in the same manner as in Example 12. The results are shown in FIG. 16: the number of the foot-lifting times in the phase 1 pain (left graph) and the number of foot-lifting time in the phase 2 pain (right graph).
# [14] = system: male Wistar rats; experiment: ethanol and restriction stress gastric ulcer (Example 4); assay type: in vivo, rat; conditions: 1% bovine lactoferrin in feed for 8 weeks; relative to control group
# Description: Sixteen male Wistar rats (6 weeks of age) were randomly divided into two groups, and the rats in one group (n=8) were fed standard feed powder for rodent animals (CLEA JAPAN, INC., CE-2) while those in the other group (n=8) fed CE-2 with 1% bovine lactoferrin added thereto for 8 weeks. Eight weeks later, the rats were deprived of food for one night, administered orally and forcibly 5 ml/kg weight of 50% ethanol, and subsequently inflicted with restriction stress for 2 hours. Two 2 hours later, the stomach of each rat was excised and “number of hemorrhagic spots”, “area of hemorrhage”, “number of ulcers”, “number of large ulcers” and “areas of ulcers” on the gastric mucosa were measured.
# [15] = system: male Wistar rats; experiment: formalin test, intrathecal administration, comparison with morphine (Example 12); assay type: in vivo; conditions: 30 minutes before formalin, bLF 0.1 to 100 μg/rat, rhLF 100 μg/rat, morphine 10 μg/rat, FIGS. 15
# Description: Groups consisting of male Wistar rats 6 weeks of age (n=6 to 8) were intrathecally administered 0.1 to 100 μg/rat of bovine lactoferrin (bLF), 100 μg/rat of recombinant human lactoferrin (rhLF) or 10 μg/rat of morphine (Mor) 30 minutes before formalin was injected into their foot pads. The results are shown in FIGS. 15: the number of the foot-lifting times in the phase 1 pain (left graph) and the number of the foot-lifting times in the phase 2 pain (right graph).
# [16] = system: beagles; experiment: subacute toxicity study, dosing period of 3 months, oral; assay type: in vivo; conditions: maximum dose of 2 g/kg
# Text: as §5
# [17] = system: rats; experiment: as above; assay type: in vivo; conditions: maximum dose of 2 g/kg
# Text: as §5
# [18] = system: male Wistar rats; experiment: formalin test, oral administration in feed for 4 weeks (Example 2); assay type: in vivo, rat; conditions: 1% bovine lactoferrin in feed for 4 weeks
# Description: as §4
# Fourteen male Wistar rats (6 weeks of age) were randomly divided into two groups, and the rats in one group were fed standard feed powder for rodent animals (Clea Japan, Inc., CE-2) while those in the other group fed CE-2 with 1% bovine lactoferrin added thereto for 4 weeks. Four weeks later, formalin solution was injected into the foot pad of each rat, and the foot-lifting and foot-licking behavior of each rat due to the pain sensation stimulation was measured for one hour (FIGS. 3 and 4).
# [19] = system: pepsin; assay type: in vitro ADME
# Text: as §6
# [20] = lactoferrin orally for 19 consecutive days
# [21] = single oral dose of lactoferrin
molecule,measurement,setting,value
"lactoferrin (protein, UniProt P24627 20-708, looked up, bovine lactoferrin extracted from milk (Tatua Milk Industry Co., Ltd., purity 87%)) Lactotransferrin: APRKNVRWCTISQPEWFKCRRWQWRMKKLGAPSITCVRRAFALECIRAIAEKKADAVTLDGGMVFEAGRDPYKLRPVAAEIYGTKESPQTHYYAVAVVKKGSNFQLDQLQGRKSCHTGLGRSAGWIIPMGILRPYLSWTESLEPLQGAVAKFFSASCVPCIDRQAYPNLCQLCKGEGENQCACSSREPYFGYSGAFKCLQDGAGDVAFVKETTVFENLPEKADRDQYELLCLNNSRAPVDAFKECHLAQVPSHAVVARSVDGKEDLIWKLLSKAQEKFGKNKSRSFQLFGSPPGQRDLLFKDSALGFLRIPSKVDSALYLGSRYLTTLKNLRETAEEVKARYTRVVWCAVGPEEQKKCQQWSQQSGQNVTCATASTTDDCIVLVLKGEADALNLDGGYIYTAGKCGLVPVLAENRKSSKHSSLDCVLRPTEGYLAVAVVKKANEGLTWNSLKDKKSCHTAVDRTAGWNIPMGLIVNQTGSCAFDEFFSQSCAPGADPKSRLCALCAGDDQGLDKCVPNSKEKYYGYTGAFRCLAEDVGDVAFVKNDTVWENTNGESTADWAKNLNREDFRLLCLDGTRKPVTEAQSCHLAVAPNHAVVSRSDRAAHVKQVLLHQQALFGKNGKNCPDKFCLFKSETKNLLFNDNTECLAKLGGRPTYEEYLGTEYVTAIANLKKCSTSPLLEACAFLTR",sensation of pain against the stimulation,[1],weakened sensation of pain
same,TNF-α production,[2]; [20],significant inhibition
same,TNF-α production,[2]; [21],significant inhibition
same,IL-10 production,[3]; [20],increase
same,IL-10 production,[3]; [21],increase
same,foot-lifting behavior,"[4]; i.p. 100 ml/kg one hour before formalin, measured for one hour, vs control P<0.0001, FIG. 1",significantly decreased
same,number of times rats lifted their feet within 50 minutes after formalin injection (phase 2 pain),"[4]; i.p. one hour before formalin, vs control, FIG. 2",more significantly decreased
same,foot-licking behavior,"[4]; i.p., higher doses, data not shown",significantly decreased
same,sensation of pain against the stimulation,[5],weakened sensation of pain
same,inhibition of phase 1 pain,[6]; FIG. 5,inhibited dose-dependently
same,inhibition of phase 2 pain,[6]; FIG. 5,inhibited dose-dependently
same,duration of pain inhibiting effect after formalin injection,[6]; FIGS. 7 and 8,≥ 60 min
same,"abnormal findings, single dose acute toxicity",[7],no abnormal findings were observed
same,"abnormal findings, single dose acute toxicity",[8],no abnormal findings were observed
same,swelling rate of the feet,"[9]; 18 consecutive days from day 0, FIG. 10",significantly lower
same,"Flexion test (screams, pain index)","[9]; days 4 and 10 after adjuvant, FIG. 11",neither screamed nor showed pain sensation reaction
same,resistance to protease,[10],significantly resistive
same,analgesic effect of lactoferrin with naloxone,[11]; LF 100 mg/kg oral plus naloxone 3 mg/kg s.c. 30 mins before Flexion test,completely inhibited by naloxone
same,sensitivity to pain in the joints (Flexion test),"[11]; single oral dose 10 to 100 mg/kg, 3 hrs before test, day 25 after adjuvant, FIG. 13",inhibited the sensitivity to pain in the joints dose-dependently
same,pain index in Flexion test,"[12]; 7 consecutive days from day 19, LF vs control from day 1, Dex vs lactoferrin groups, FIG. 12C",significantly lower
same,swelling of feet,"[12]; 7 consecutive days from day 19 after adjuvant, LF 100 mg/kg oral (day 7 vs control), Dex 1 mg/kg (from day 1)",significantly lower
same,"enhancement of the analgesic effect of morphine, phase 1 pain",[13],10- to 100 fold
same,"enhancement of the analgesic effect of morphine, phase 2 pain",[13],10- to 100 fold
same,"area of the hemorrhage per rat, decreased to",[14],79%
same,"area of the ulcers, decreased to",[14],about 30%
same,"number of the large ulcers, decreased to",[14],50%
same,"number of the ulcers, decreased to",[14],50%
same,"number, per rat, of hemorrhagic spots on the gastric mucosa, decreased to",[14],87%
same,phase 1 pain (number of foot-lifting times),[15],inhibits
same,phase 2 pain (number of foot-lifting times),[15],inhibits
same,"abnormal findings, subacute toxicity",[16],no abnormal findings were observed
same,"abnormal findings, subacute toxicity",[17],no abnormal findings were observed
same,foot-licking behavior,[18],significantly decreased
same,phase 2 pain sensation stimulation induced by formalin,[18]; FIG. 4,significantly inhibiting
same,stimulation of the pain sensation (foot-lifting),"[18]; vs control P<0.0001, FIG. 3",weakened the sensitivity to pain
same,sensitivity to pepsin,[19],highly sensitive
